Assay results: US20050089523A1

Columns and labels:
[1] = molecular target: anti-VCAM-1•tTF coaguligand (anti-VCAM-1 antibody MK2.7 covalently linked through SMPT to truncated tissue factor, one antibody to one tTF, Mr 180,000) (human) (UniProt P13726); assay: 125I-labeled 10H10 bound to anti-VCAM-1•tTF-treated, IL-1alpha-activated bEnd.3 cells, at saturation
[2] = molecular target: murine vascular endothelial adhesion molecule-1 (VCAM-1) (murine) (UniProt P29533); assay: bEnd.3 cells treated with coaguligand, detected with 125I-labeled 10H10; attributed to constitutive VCAM-1 expression
[3] = molecular target: murine vascular endothelial adhesion molecule-1 (VCAM-1) (murine) (UniProt P29533); assay: cell-based or functional assay

Chain of UniProt P29533 (P29533 25-739): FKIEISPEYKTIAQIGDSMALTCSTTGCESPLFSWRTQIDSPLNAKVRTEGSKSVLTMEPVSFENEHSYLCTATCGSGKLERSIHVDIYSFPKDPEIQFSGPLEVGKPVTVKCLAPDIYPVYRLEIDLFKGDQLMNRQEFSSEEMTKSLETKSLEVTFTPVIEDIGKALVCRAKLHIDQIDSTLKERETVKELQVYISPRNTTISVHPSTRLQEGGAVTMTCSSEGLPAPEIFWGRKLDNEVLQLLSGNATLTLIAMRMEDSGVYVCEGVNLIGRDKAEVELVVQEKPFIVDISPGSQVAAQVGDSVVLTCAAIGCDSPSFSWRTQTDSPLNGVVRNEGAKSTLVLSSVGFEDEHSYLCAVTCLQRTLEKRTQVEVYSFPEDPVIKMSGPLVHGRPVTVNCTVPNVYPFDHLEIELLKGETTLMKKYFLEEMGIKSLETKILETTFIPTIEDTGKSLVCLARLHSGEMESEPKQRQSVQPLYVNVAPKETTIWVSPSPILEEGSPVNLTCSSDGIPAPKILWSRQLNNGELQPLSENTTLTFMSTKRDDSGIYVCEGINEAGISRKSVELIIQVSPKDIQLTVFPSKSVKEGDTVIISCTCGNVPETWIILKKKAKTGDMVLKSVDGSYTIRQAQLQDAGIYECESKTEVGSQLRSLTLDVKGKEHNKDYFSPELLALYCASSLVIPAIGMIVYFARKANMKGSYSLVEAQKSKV

amount of anti-TF antibody bound at saturation [1] [fmol] | molecules of anti-TF antibody bound per cell (molecules per cell) [1] | binding to unstimulated cells relative to activated cells [2] | Generation of Factor Xa by anti-VCAM-1•tTF bound to intact, IL-1α-stimulated bEnd.3 cells (ng per 10^4 cells per 60 min.) [3] | Generation of Factor Xa by anti-VCAM-1•tTF bound to intact, unstimulated (control) bEnd.3 cells (ng per 10^4 cells per 60 min.) [3] | Generation of Factor Xa by anti-VCAM-1•tTF bound to saponin-permeabilized, IL-1α-stimulated bEnd.3 cells (ng per 10^4 cells per 60 min.) [3] | Generation of Factor Xa by anti-VCAM-1•tTF bound to saponin-permeabilized, unstimulated (control) bEnd.3 cells (ng per 10^4 cells per 60 min.) [3] | Substance
8.7 | 540000 |  |  |  |  |  | 10H10, mouse monoclonal antibody against human tissue factor
 |  | 0.5 | 3.17 | 1.64 | 98.8 | 49.2 | anti-VCAM-1•tTF coaguligand (anti-VCAM-1 antibody MK2.7 covalently linked through SMPT to truncated tissue factor, one antibody to one tTF, Mr 180,000) (from UniProt P13726 33-251)
